41 variants from the RNAGym collection of RNA variant scans (doi:10.7554/elife.90254) can be followed below.

First the molecules themselves.
B1: OR4K15 (parent)
chain: GUUAACGGUCAUAGGCCAUGGAAACUAGGAGCACCAUUUCGCUGCCAGUGAAGAAAUGAACAAAGAAAAUCUGGGCCAGGCAGGCAUCAAAAGAAAUAGUCUUGCGCUCAACCAGAAAGUCUGUAAUCAUUUUAAGGGUA

This series covers variants of B1. Put plainly: self-cleavage, relative activity (ratio to wild type); higher = more cleavage; in vitro, sequencing; the parent is a self-cleaving ribozyme.
As for GUUAACGGUCAUAGGCCAUGGAAACUAGGAGCACCAUUUCGCUACCAGUGAAGGAAUGAACAAAGAAAAUCUGGGCCAGGCAGGCAUCAAAAGAAAUAGUCUUGCGCUCAACCAGAAAGUCUGUAAUCAUUUUAAGGGUA, the self-cleavage stood at 1.57.

As to GUUAACUGUCAUAGGCCAUGGAAACUAGGAGCACCAUUUCGCUGCCAGUGAAGAAGUGAACAAAGAAAAUCUGGGCCAGGCAGGCAUCAAAAGAAAUAGUCUUGCGCUCAACCAGAAAGUCUGUAAUCAUUUUAAGGGUA, the self-cleavage was found to be 1.29. Then GUUAACGGCCAUAGGCCAUGGAAACUAGGAGCACCAUUUCGCUGCCAGUGAAGAAAUGAACAAAGAAAAUCUGGGCCAGGCAGGCAUCAAAAGAAAUAGCCUUGCGCUCAACCAGAAAGUCUGUAAUCAUUUUAAGGGUA, with 2.18. Then GUUAACGGUCAUAGGCCAUGGAAACUAGGAGCACCAUUUCGCCGCCAGUGAAGUAAUGAACAAAGAAAAUCUGGGCCAGGCAGGCAUCAAAAGAAAUAGUCUUGCGCUCAACCAGAAAGUCUGUAAUCAUUUUAAGGGUA, with 0.85; and GUUAACGGUCAUAGGCCAUGGAAACUAGGAGCACCAUUUCGCUGCCAGUGAAGAAAUGAACAAAGAAAAUCUGGGCCAGGCAGGCAUCCAAAGAAAUAGUCUUGCGCUCAACCAGAAAGUCUGUAAUCAUUUUAAGGGUA, with 1.54. Then GUUAACGGUCAUAGGCCAUGGAAACUAGGAGCACCAUUUGGCUGCCAGUGAAGAAAUGAACAAAGAAAAUCUGAGCCAGGCAGGCAUCAAAAGAAAUAGUCUUGCGCUCAACCAGAAAGUCUGUAAUCAUUUUAAGGGUA, with 0.29; and GUUAACGGUCAUAGGCCAUGGUAACUAGGAGCACCAUUUCGCUGCCAGUGAAGAAAUGAACAAAGAAAAUCUGGGCCAGGCAGGCAUCAAAAGAAAUAGUCUUGCGCUCAACCAGAAAGUCUGUACUCAUUUUAAGGGUA, with 1.34; and GCUAACGGUCAUAGGCCAAGGAAACUAGGAGCACCAUUUCGCUGCCAGUGAAGAAAUGAACAAAGAAAAUCUGGGCCAGGCAGGCAUCAAAAGAAAUAGUCUUGCGCUCAACCAGAAAGUCUGUAAUCAUUUUAAGGGUA, with 1.16. In the case of GUUAACGGUCAUAGGCCAUGGAAGCUAGGAGCACCAUUUCGCUGCUAGUGAAGAAAUGAACAAAGAAAAUCUGGGCCAGGCAGGCAUCAAAAGAAAUAGUCUUGCGCUCAACCAGAAAGUCUGUAAUCAUUUUAAGGGUA, the self-cleavage came to 0.73. Then GUUAACGGUCAUAGGCCAUGGAAACUAGGAGCACCAUUUCGCUGCCAGUGAAGAAAUGAACAAAGAAAAUCUGGGCCAGGCAGGCAUCAAAAGAGAUAGUCUUGCGCUAAACCAGAAAGUCUGUAAUCAUUUUAAGGGUA, with 0.78; and GUUAACGGUCAUAGGCCAUGGAAACUAGGAGCACCAUUUCGCUGCCAGUGAAGAAAUGAACAAAGGAAAUCUGGGCCAGGCAGGCAUCAAAAGAAAUAGUCUUGCGCUCAACCAGAAAGUCUGUAAUCAUUUUAUGGGUA, with 1.08; and GUUAACGGUCAUAGGCCAUGGAAACUAGGAGCACCAUUUCGCUGCCAGUGAAGAAAUGAACAAUGAAAAUCUGGGCCAGGCAGGCAUCAAAAGAAAUAGUCUUGCGCUCAACCAGAAAGUCUGUAAUCAUUCUAAGGGUA, with 1.49. Then GUUAACGGUCAUAGGCCAUGGAAACUAGGAGCACCAUUUCGCUGCCAGUGAAGAAAUGAACAAAGAAAAUCUGGGCCAGGCAGGCAUCAAAAGAAAUGGUCUUGCGCUCGACCAGAAAGUCUGUAAUCAUUUUAAGGGUA, with 0.06; and GUUAACGGUCAUAGGCCAUGGAAACUAGGAGCACCACUUCGCUGCCAGUGAAGAAAUGAACAAAGAAAAUCUGGGCCGGGCAGGCAUCAAAAGAAAUAGUCUUGCGCUCAACCAGAAAGUCUGUAAUCAUUUUAAGGGUA, with 0.26; and GUUAACGGUCAUAGGCCAUGGAAACUAGGAGCGCCAUUUCGCUGCCAGUGAAGAAAUGAACAAAGAAAAUCUGGGCCAGGCAGGCAUCAAAAGAAAUAGUCUUGCGCUCAACCAGAGAGUCUGUAAUCAUUUUAAGGGUA, with 0.7.

Turning to GUUAACGGUCAUAGGCCAUGGAAACUAGGAGCACCACUUCGCUGCCAGUGAAGAAAUGAACAAAGAAAAUCUGGGCCAGGCAGGCAUCAAAAUAAAUAGUCUUGCGCUCAACCAGAAAGUCUGUAAUCAUUUUAAGGGUA, the self-cleavage was determined as 1.07. Then GUUAACGGUCAUAGGCCGUGGAAACUAGGAGCACCAUUUCGCUGCCAGUGAAGAAAUGAACAAAGAAAAUCUGGGCCAGGCAGGCACCAAAAGAAAUAGUCUUGCGCUCAACCAGAAAGUCUGUAAUCAUUUUAAGGGUA, with 1.27; and GUUAACGGUCAUAGGCCAUGGAAACUAGGAGCACCAUUUCGCUGCCAGUGAAGAAAUGAACAAAGAAAAUCUGGGCCAGGCAGGCACCAAAAGAAAUAGUCUUGCGCUCAACCAGACAGUCUGUAAUCAUUUUAAGGGUA, with 0.

Regarding GUUAACGGUCAUAGGCCAUGGAAACUAGGAGCACCAUUUCGCUGCCAGCGAAGAAAUGAACAAAGAAAAACUGGGCCAGGCAGGCAUCAAAAGAAAUAGUCUUGCGCUCAACCAGAAAGUCUGUAAUCAUUUUAAGGGUA, the self-cleavage is 1.1. GUUAACGGUCAUAGGCCAUGGAAACUAGGAGCACCAUUUCGCUGCCAGUGAAGAAAUGAACAAAGAAAAUCUGGGCCAGGCAGGCAUCAAAAGAAAUAGUCUUGCGCUCAACCUGGAAGUCUGUAAUCAUUUUAAGGGUA: the self-cleavage amounted to 0.01. Then GUUAACGGUCAUAGGCCAUGGAAACUAGGAGCACCAUUUCGCUGCCAGUGAAGAAAUGAUCAAAGAAAAUCUGGGCCGGGCAGGCAUCAAAAGAAAUAGUCUUGCGCUCAACCAGAAAGUCUGUAAUCAUUUUAAGGGUA, with 0.23; and GUUAACGGUCAUAGGCCAAGGAAACUAGGAGCACCAUUUCGCUGCCAAUGAAGAAAUGAACAAAGAAAAUCUGGGCCAGGCAGGCAUCAAAAGAAAUAGUCUUGCGCUCAACCAGAAAGUCUGUAAUCAUUUUAAGGGUA, with 1.35; and GUUAACGGUCAUAGGCCAUGGAAACUAGGAGCACCAUUUCGCUGCCAGUGAAGAAAUGAACAAAGAAAAUCUGGGCCAGGCAGGCAUCAAAAGAAGUAGUCAUGCGCUCAACCAGAAAGUCUGUAAUCAUUUUAAGGGUA, with 1.52.

For GUUAACGGUCAUAGGCCAUGGAAACUAGGAGCACCAUUUCGCUGCCAGUGAAGAAAUGAACAAAGAAAAUCUGGGCCAGGCAGGCAUCAAAAGAAAUAGUCUUGCGCUCAACCAGAAAGUCUGUAAUCACUUCAAGGGUA, the self-cleavage worked out at 1.54. As to GUUAACGGUCAUAGGCCAUGGAAACUAGGAGCACCAUUUCGCUGCCAGUGAAGAAAUGAACAAAGAAAAUCUGGGCCAGGCAGGCAUCAAAAGAAAUAGUCUUGCGCUCAACCAGGAAGUCUGUAUUCAUUUUAAGGGUA, the self-cleavage was determined as 1.04.

Take GUUAAUGGUCAUAGGCCAUGGAAACUAGGAGCACCAUUUCGCUGCCAGUGAAGAAAUGAACAAAGAAAAUCUGGGCCAGGCAGGCAUCAAAAGAAAUAGUCUUGCGCUCGACCAGAAAGUCUGUAAUCAUUUUAAGGGUA: the self-cleavage was found to be 0.19. Consider GUUAACGGUCAUAGGCCAUGGAAACUAGGAGCACCAUUUCGCUGCCAGUGAAGAAAUGAACAAAGAAAAUCUGGGCCAGGCAGGCAUCAAAAGAAAUAGUCUUGCGCUCAACUAGAAAGCCUGUAAUCAUUUUAAGGGUA, for which the self-cleavage worked out at 0.04. Then GUUAACGGUCAUAGGCCAUGGAAACUAGGAACACCAUUUCGCUGCCAGUGAUGAAAUGAACAAAGAAAAUCUGGGCCAGGCAGGCAUCAAAAGAAAUAGUCUUGCGCUCAACCAGAAAGUCUGUAAUCAUUUUAAGGGUA, with 1.32.

With GUUAACGGUCAUAGGCCAUGGAAACUAGGGGCACCAUUUCGCUGCCAGUGAAGAAAUGAACAAAGAAAAUCUGGCCCAGGCAGGCAUCAAAAGAAAUAGUCUUGCGCUCAACCAGAAAGUCUGUAAUCAUUUUAAGGGUA, the self-cleavage was 0.19. Then GUUAACGGUCAUAGGCCAUGGAAACUAGGAGCACCAUUUCGCUGCCAGUGAAGAAAUGAACAAAGAAAAUCUAGGCCAGGCGGGCAUCAAAAGAAAUAGUCUUGCGCUCAACCAGAAAGUCUGUAAUCAUUUUAAGGGUA, with 0.22; and GUUAACGGUCAUAGGCCAUGGAAACUAGGAGCACCAUUUCGCUGCCAGUGAAGAAAUGAACAAAGAAAAUCUGGGCCAGGCAGGCAUCAAAAGAAAUAGUCUUGCGCUCAACCAGCGAGUCUGUAAUCAUUUUAAGGGUA, with 0.04. Then GUUAACGGUCAUAGGCCAUGGAAACUAGGAGCACCAUUUCGCUGCCAGUGAAGAAAUGAACAAAGAAGAUCUGGGCCAGGCAGGCAUCAAAAGAAAUAGACUUGCGCUCAACCAGAAAGUCUGUAAUCAUUUUAAGGGUA, with 0.24; and GUUAACGGUCAUAGGCCAUGGAAACUAGGAGCACCAUUUCGCUGCCAGCGAAGAAAUGAACAAAGAAAAUCUGGGCCAGGCAGGCAUCAAAAGAAAUAGUCUUGCGCUCAACCAGAAAGUCUGUAAUCAUUUUAAGAGUA, with 1.95.

Consider GUUAACGGUCAUAGGCCAUGGAAACUAGGAGCACCAUUUCGCUGCCAGUGAAGAAAUGAACAAAGAAAAUCUGGGCCAGGCAGGCAUCAAAAGAAAUAGUCUUGCGCUCAACCAGAAAGUCCGUAAUCAUGUUAAGGGUA, for which the self-cleavage was 0.88. Then GUUAACGGUCAUAGGCCAUGGAAACUAGGAGCACCAUUUCGCUGCCAGUGAAGAGAUGAACAAAGAAAAUCUGGGCCAGGCAGGCAUCAAAAGAAAUAGUCUCGCGCUCAACCAGAAAGUCUGUAAUCAUUUUAAGGGUA, with 1.06; and GUCAACGGUCAUAGGCCAUGGAAACUAGGAGCACCAUUUCGCUGCCAGCGAAGAAAUGAACAAAGAAAAUCUGGGCCAGGCAGGCAUCAAAAGAAAUAGUCUUGCGCUCAACCAGAAAGUCUGUAAUCAUUUUAAGGGUA, with 0.5; and GUUAACGGUCAUAGGCCAUGGAAACUAAGAGCACCAUUUCGCUGCCAGUGAAGAAAUGAACAAAGAGAAUCUGGGCCAGGCAGGCAUCAAAAGAAAUAGUCUUGCGCUCAACCAGAAAGUCUGUAAUCAUUUUAAGGGUA, with 1.55. With GUUAACGGUCAUAGGCCAUGGAAACUAGGAGCACCAUUUCGCUGCCAGUGGAGAAAUGAACAAUGAAAAUCUGGGCCAGGCAGGCAUCAAAAGAAAUAGUCUUGCGCUCAACCAGAAAGUCUGUAAUCAUUUUAAGGGUA, the self-cleavage was 1.75. On to GUCAACGGUCAUAGGCCAUGGAAACUAGGAGCACCAUUUCGCUGCCAGUGAAGAAAUGAACAAAGAAAAUCUGGGCCAGGCAGGCAUCCAAAGAAAUAGUCUUGCGCUCAACCAGAAAGUCUGUAAUCAUUUUAAGGGUA, for which the self-cleavage stood at 0.91. Then GUUAACGGUCAUAGGCCAUGGAAACUAGGAGCACCAUUUCGCUGCCAGUGAAGAAAUGAACAAAGAAAAUCUGGGCCAGGCAGGCAUCAAAAGAAAUAGUCUCGCGCCCAACCAGAAAGUCUGUAAUCAUUUUAAGGGUA, with 0.01. Then GUUAACGGUCAUAGGCCAUGGAAACUAGGAGCACCAUUUCGCUGCCAGUGAAGAAAUGAACAAAGAAAAUCUGGGCCAGGCAGGCAUCAAAAGAAAUAUUCUCGCGCUCAACCAGAAAGUCUGUAAUCAUUUUAAGGGUA, with 0.15.
